{
  "source": "paper PMC9561264",
  "key": {"[1]": {"biological_target": "T1, hOGG1 wild type;c-Myc;Max (human;human?;human?) (UniProt O15527+P01106)", "T1 sequence (P01106 whole entry, looked up, chain 1 of 2)": "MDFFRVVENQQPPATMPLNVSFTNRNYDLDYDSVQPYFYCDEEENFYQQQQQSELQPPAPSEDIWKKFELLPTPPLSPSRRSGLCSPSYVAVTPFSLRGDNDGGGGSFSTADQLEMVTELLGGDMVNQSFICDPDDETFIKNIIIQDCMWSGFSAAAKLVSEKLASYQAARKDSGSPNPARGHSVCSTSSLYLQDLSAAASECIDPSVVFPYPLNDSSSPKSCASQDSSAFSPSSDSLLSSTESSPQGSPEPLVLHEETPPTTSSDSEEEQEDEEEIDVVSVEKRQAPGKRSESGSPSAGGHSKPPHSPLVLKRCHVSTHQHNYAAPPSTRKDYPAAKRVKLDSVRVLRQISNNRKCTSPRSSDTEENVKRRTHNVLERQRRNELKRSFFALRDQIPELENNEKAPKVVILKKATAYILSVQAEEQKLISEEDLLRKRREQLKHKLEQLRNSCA", "T1 sequence (O15527 whole entry, looked up, chain 2 of 2)": "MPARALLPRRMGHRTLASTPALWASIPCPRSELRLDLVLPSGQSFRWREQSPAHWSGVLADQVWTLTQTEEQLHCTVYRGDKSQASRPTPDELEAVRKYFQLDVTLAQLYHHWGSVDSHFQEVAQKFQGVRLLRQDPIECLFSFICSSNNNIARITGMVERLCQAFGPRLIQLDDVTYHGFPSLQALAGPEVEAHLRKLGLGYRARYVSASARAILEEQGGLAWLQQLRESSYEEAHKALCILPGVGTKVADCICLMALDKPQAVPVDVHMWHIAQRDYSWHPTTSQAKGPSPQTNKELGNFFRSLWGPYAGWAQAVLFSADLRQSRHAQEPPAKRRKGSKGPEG", "test": "AFM (QD-Myc)", "details": "FP at 25°C with 5 nM labelled DNA, EMSA room temp 30 min, 15% native PAGE 0.5x TBE 4°C, interaction buffer 20 mM Tris-HCl pH 7.6, 200 mM NaCl (Fig. S12) …"}, "[2]": {"biological_target": "T2, hOGG1 wild type;c-Myc (human;human?) (UniProt O15527+P01106)", "T2 sequence (O15527 whole entry, chain 1 of 2)": "as the sequence (O15527 whole entry, looked up, chain 2 of 2) above", "T2 sequence (P01106 16-454, chain 2 of 2)": "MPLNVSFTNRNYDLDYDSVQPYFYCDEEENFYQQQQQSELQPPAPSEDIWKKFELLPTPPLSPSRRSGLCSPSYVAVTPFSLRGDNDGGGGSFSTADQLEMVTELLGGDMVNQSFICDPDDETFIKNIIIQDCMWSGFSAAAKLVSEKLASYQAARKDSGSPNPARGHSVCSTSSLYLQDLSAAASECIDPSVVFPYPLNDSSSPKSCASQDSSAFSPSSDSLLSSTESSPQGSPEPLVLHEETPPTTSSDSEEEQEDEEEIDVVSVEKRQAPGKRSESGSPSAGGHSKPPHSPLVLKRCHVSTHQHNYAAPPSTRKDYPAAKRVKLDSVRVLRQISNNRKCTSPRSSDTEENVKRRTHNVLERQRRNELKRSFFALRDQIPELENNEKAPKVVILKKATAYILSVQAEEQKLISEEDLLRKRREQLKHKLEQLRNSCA", "test": "AFM", "details": "30 nM Myc, 8-oxoguanine at ~50% (49.8%) of length, FP at 25°C with 5 nM labelled DNA, EMSA room temp 30 min, 15% native PAGE 0.5x TBE 4°C, interaction buffer 20 mM Tris-HCl pH 7.6, 200 mM NaCl (Fig. S12) …"}, "[3]": {"biological_target": "hOGG1 C28A;c-Myc C28A (human;human?) (UniProt O15527+P01106)", "sequence (O15527 whole entry C28A, chain 1 of 2)": "as the sequence (O15527 whole entry, looked up, chain 2 of 2) above, with C28A counted along it", "sequence (P01106 16-454, chain 2 of 2)": "as the sequence (P01106 16-454, chain 2 of 2) above", "test": "AFM", "details": "8-oxoguanine at ~50% (49.8%) of length; FP at 25°C with 5 nM labelled DNA; EMSA room temp 30 min, 15% native PAGE 0.5x TBE 4°C; interaction buffer 20 mM Tris-HCl pH 7.6, 200 mM NaCl (Fig. S12) …"}, "[4]": {"biological_target": "T1, hOGG1 wild type;c-Myc;Max (human;human?;human?)", "test": "AFM", "details": "8-oxoguanine at ~50% (49.8%) of length, FP at 25°C with 5 nM labelled DNA, EMSA room temp 30 min, 15% native PAGE 0.5x TBE 4°C"}, "hOGG1 C28A C28A (human)": {"biological_target": "hOGG1 C28A C28A (human) (UniProt O15527)", "sequence (O15527 whole entry C28A)": "as the sequence (O15527 whole entry, looked up, chain 2 of 2) above, with C28A counted along it", "test": "AFM", "details": "oxidising; specificity 779 ± 471; 8-oxoguanine at ~50% (49.8%) of length; FP at 25°C with 5 nM labelled DNA; EMSA room temp 30 min, 15% native PAGE 0.5x TBE 4°C; interaction buffer 20 mM Tris-HCl pH 7.6, 200 mM NaCl (Fig. S12); reduci"}, "[5]": {"biological_target": "hOGG1 K249Q;c-Myc K249Q (human;human?) (UniProt O15527+P01106)", "sequence (O15527 whole entry K249Q, chain 1 of 2)": "as the sequence (O15527 whole entry, looked up, chain 2 of 2) above, with K249Q counted along it", "sequence (P01106 16-454, chain 2 of 2)": "as the sequence (P01106 16-454, chain 2 of 2) above", "test": "AFM", "details": "8-oxoguanine at ~50% (49.8%) of length, FP at 25°C with 5 nM labelled DNA, EMSA room temp 30 min, 15% native PAGE 0.5x TBE 4°C"}, "[6]": {"biological_target": "hOGG1 K249Q K249Q (human) (UniProt O15527)", "sequence (O15527 whole entry K249Q)": "as the sequence (O15527 whole entry, looked up, chain 2 of 2) above, with K249Q counted along it", "test": "AFM", "details": "8-oxoguanine at ~50% (49.8%) of length, FP at 25°C with 5 nM labelled DNA, EMSA room temp 30 min, 15% native PAGE 0.5x TBE 4°C"}, "c-Myc;Max": {"biological_target": "c-Myc;Max (UniProt P01106)", "sequence (P01106 whole entry, looked up)": "as the sequence (P01106 whole entry, looked up, chain 1 of 2) above", "test": "AFM (QD-Myc)", "details": "8-oxoguanine 8 bp upstream of E-box, ~50% of length; FP at 25°C with 5 nM labelled DNA; EMSA room temp 30 min, 15% native PAGE 0.5x TBE 4°C; interaction buffer 20 mM Tris-HCl pH 7.6, 200 mM NaCl (Fig. S12) …"}, "[7]": {"biological_target": "T2, hOGG1 wild type;c-Myc (human;human?)", "test": "AFM (QD-Myc)", "details": "8-oxoguanine 8 bp upstream of E-box, ~50% of length; FP at 25°C with 5 nM labelled DNA; EMSA room temp 30 min, 15% native PAGE 0.5x TBE 4°C; interaction buffer 20 mM Tris-HCl pH 7.6, 200 mM NaCl (Fig. S12) …"}, "[8]": {"biological_target": "hOGG1 K249Q;c-Myc;Max K249Q (human;human?;human?) (UniProt O15527+P01106)", "sequence (P01106 whole entry, looked up, chain 1 of 2)": "as above", "sequence (O15527 whole entry, looked up, stated change not applied, chain 2 of 2)": "as the sequence (O15527 whole entry, looked up, chain 2 of 2) above", "test": "AFM (QD-Myc)", "details": "8-oxoguanine 8 bp upstream of E-box, ~50% of length; FP at 25°C with 5 nM labelled DNA; EMSA room temp 30 min, 15% native PAGE 0.5x TBE 4°C; interaction buffer 20 mM Tris-HCl pH 7.6, 200 mM NaCl (Fig. S12) …"}, "[9]": {"biological_target": "hOGG1 C28A;c-Myc;Max C28A (human;human?;human?) (UniProt O15527+P01106)", "sequence (P01106 whole entry, looked up, chain 1 of 2)": "as the sequence (P01106 whole entry, looked up, chain 1 of 2) above", "sequence (O15527 whole entry, looked up, stated change not applied, chain 2 of 2)": "as the sequence (O15527 whole entry, looked up, chain 2 of 2) above", "test": "AFM (QD-Myc)", "details": "8-oxoguanine 8 bp upstream of E-box, ~50% of length; FP at 25°C with 5 nM labelled DNA; EMSA room temp 30 min, 15% native PAGE 0.5x TBE 4°C; interaction buffer 20 mM Tris-HCl pH 7.6, 200 mM NaCl (Fig. S12) …"}},
  "note": "Where “and” joins values, the source holds several entries; their conditions need not be identical. Equal values may be shown once.",
  "data": [
    {"substance": "oxoG 505 bp AFM substrate", "values": [
      {"measurement": "binding signal", "setting": "[1]; 8-oxoguanine at ~50% (49.8%) of length", "value": "0.15 Myc/DNA and 0.06 Myc/DNA"},
      {"measurement": "binding signal (counts/DNA at oxoG)", "setting": "[2]; oxidising, specificity 423 ± 155", "value": 0.17},
      {"measurement": "binding signal (counts/DNA at oxoG)", "setting": "[2]; reducing, specificity 517 ± 161", "value": 0.17},
      {"measurement": "binding signal (counts/DNA at oxoG)", "setting": "[3]", "value": 0.14},
      {"measurement": "binding signal (counts/DNA at oxoG)", "setting": "[4]; oxidising, specificity 421 ± 252, interaction buffer 20 mM Tris-HCl pH 7.6, 200 mM NaCl (Fig. S12), reduci", "value": 0.19},
      {"measurement": "binding signal (counts/DNA at oxoG)", "setting": "[4]; reducing, specificity 456 ± 289, interaction buffer 20 mM Tris-HCl pH 7.6, 200 mM NaCl (Fig. S12) …", "value": 0.12},
      {"measurement": "binding signal (counts/DNA at oxoG)", "setting": "hOGG1 C28A C28A (human)", "value": 0.14},
      {"measurement": "binding signal (counts/DNA at oxoG)", "setting": "[5]; oxidising, specificity 438 ± 217, interaction buffer 20 mM Tris-HCl pH 7.6, 200 mM NaCl (Fig. S12), reduci", "value": 0.1},
      {"measurement": "binding signal (counts/DNA at oxoG)", "setting": "[5]; reducing, specificity 421 ± 153, interaction buffer 20 mM Tris-HCl pH 7.6, 200 mM NaCl (Fig. S12) …", "value": 0.15},
      {"measurement": "binding signal (counts/DNA at oxoG)", "setting": "[6]; oxidising, specificity 294 ± 139, interaction buffer 20 mM Tris-HCl pH 7.6, 200 mM NaCl (Fig. S12), reduci", "value": 0.09},
      {"measurement": "binding signal (counts/DNA at oxoG)", "setting": "[6]; reducing, specificity 468 ± 197, interaction buffer 20 mM Tris-HCl pH 7.6, 200 mM NaCl (Fig. S12) …", "value": 0.18}
    ]},
    {"substance": "E-box AFM substrate", "values": [
      {"measurement": "binding signal", "setting": "[1]", "value": 0.11, "unit": "Myc/DNA"}
    ]},
    {"substance": "oxoG-E-box AFM substrate", "values": [
      {"measurement": "binding signal", "setting": "c-Myc;Max", "value": "0.14 Myc/DNA and 0.12 Myc/DNA"},
      {"measurement": "binding signal", "setting": "[7]", "value": "0.12 Myc/DNA and 0.08 Myc/DNA"},
      {"measurement": "binding signal", "setting": "[8]", "value": "0.29 Myc/DNA and 0.17 Myc/DNA"},
      {"measurement": "binding signal", "setting": "[1]; 8-oxoguanine 8 bp upstream of E-box, ~50% of length", "value": "0.29 Myc/DNA and 0.17 Myc/DNA"},
      {"measurement": "binding signal", "setting": "[9]", "value": 0.16, "unit": "Myc/DNA"}
    ]}
  ]
}
